T1: human progastrin (human, UniProt P01350 22-101)
T1 construct: also called hPG; PG
T1 sequence: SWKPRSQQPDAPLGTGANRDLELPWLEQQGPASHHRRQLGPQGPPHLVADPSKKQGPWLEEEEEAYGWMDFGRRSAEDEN


Molecular target: T1, human progastrin
Assay: epitope mapping, method not described

Binder | binding result
mAb4 (antibody, V domains shown, Murine monoclonal antibody from a hybridoma, raised against hPG 1-14; also called 20D2C3G2) VH: QVQLQQSGAELMKPGASVKISCKATGYTFSSSWIEWLKQRPGHGLEWIGEFLPGSGSTDYNEKFKGKATFTADTSSDTAYMLLSSLTSEDSAVYYCATDGNYDWFAYWGQGTLVTVSA VL: DLVMTQTPLSLPVSLGDQASISCRSSQSLVHSSGVTYLHWYLQKPGQSPKLLIYKVSNRFSGVPDRFSGSGSGTDFTLKISRVEAEDLGVYFCSQSTHVPPTFGSGTKLEIK | binds
mAb3 (antibody, V domains shown, Murine monoclonal antibody from a hybridoma, raised against hPG 1-14; also called 6B5B11C10) VH: EVQLQQSGTVLARPGASVKMSCKASGYIFTSYWVHWVKQRPGQGLEWIGGFYPGNSDSRYNQKFKGKATLTAVTSASTAYMDLSSLTNEDSAVYFCTRRDSPQYWGQGTTLTVSS VL: DVLMTQTPLSLPVSLGDQASISCRSSQSIVHSNGNTYLEWYLQKPGQSPKLLIYKVSNRFSGVPDRFSGSGSGTDFTLKISRLEAEDLGVYYCFQGSHVPFTFGGGTKLEIK | binds
mAb16 (antibody, V domains shown, Murine monoclonal antibody from a hybridoma, raised against hPG 1-14; also called 1E9D9B6) VH: QVQLQQSGAELVKPGASVKLSCKASGYTFTSYYMYWVKQRPGQGLEWIGEINPSNGGTNFNEKFKSKATLTVDKSSSTAYMQLSSLTSEDSAVYYCTRGGYYPFDYWGQGTTLTVSS VL: not shown | binds
mAb19 (antibody, V domains shown, Murine monoclonal antibody from a hybridoma, raised against hPG 1-14; also called 1B3B4F11) VH: DVQLQESGPGLVKPSQSLSLTCTVTGYSITSDYAWNWIRQFPGNKLEWMGYISFSGYTSYNPSLKSRISVTRDTSRNQFFLQLTSVTTEDTATYYCAREVNYGDSYHFDYWGQGTIVTVSS VL: QLALTQSSSASFSLGASAKLTCTLSSQHRTYTIEWYQQQSLKPPKYVMEVKKDGSHSTGHGIPDRFSGSSSGADRYLSISNIQPEDEAIYICGVGDAIKGQSVFVFGGGTKVTVL | binds
mAb13 (antibody, V domains shown, Murine monoclonal antibody from a hybridoma, raised against hPG 55-80; also called 2C6C3C7) VH: EVQLVESGGGLVQPGGSLKLSCAASGFIFSSYGMSWVRQSPDRRLELVASINTFGDRTYYPDSVKGRFTISRDNAKNTLYLQMTSLKSEDTAIYYCARGTGTYWGQGTTLTVSS VL: not shown | binds
